Substrate in series [1]: CCCCCCCCCCCCCCCCCC
The experiment in a line: NADPH consumption, Lineweaver-Burk. The following applies: 10 mM NADPH, 0.015% Triton X-100, 50 mM Tris-HCl pH 8.0, 60 °C. Format: biochemical, Geobacillus thermodenitrificans. The source says:
NADPH consumption, Lineweaver-Burk on LadA (alkane monooxygenase)

Substrate in the series “purified protein”: Cc1cc2nc3c(=O)[nH]c(=O)nc-3n(C[C@H](O)[C@H](O)[C@H](O)COP(=O)(O)O)c2cc1C
The experiment in a line: purified protein. The following applies: FMN added to octadecane/NADPH mixture, FMNH2 consumption followed at A455, pH 8.0, 60 °C, varied: cofactor. Format: biochemical, Geobacillus thermodenitrificans.

B1: LadA (alkane monooxygenase) (Geobacillus thermodenitrificans NG80-2) (protein)
chain: MTKKIHINAFEMNCVGHIAHGLWRHPENQRHRYTDLNYWTELAQLLEKGKFDALFLADVVGIYDVYRQSRDTAVREAVQIPVNDPLMLISAMAYVTKHLAFAVTFSTTYEHPYGHARRMSTLDHLTKGRIAWNVVTSHLPSADKNFGIKKILEHDERYDLADEYLEVCYKLWEGSWEDNAVIRDIENNIYTDPSKVHEINHSGKYFEVPGPHLCEPSPQRTPVIYQAGMSERGREFAAKHAECVFLGGKDVETLKFFVDDIRKRAKKYGRNPDHIKMFAGICVIVGKTHDEAMEKLNSFQKYWSLEGHLAHYGGGTGYDLSKYSSNDYIGSISVGEIINNMSKLDGKWFKLSVGTPKKVADEMQYLVEEAGIDGFNLVQYVSPGTFVDFIELVVPELQKRGLYRVDYEEGTYREKLFGKGNYRLPDDHIAARYRNISSNV
Consider B1, for which, in series [1], the Km – broadly, the substrate concentration at which the rate is half of its maximum – amounted to 10360 ± 1600 µM; the kcat – broadly, the maximal rate divided by the concentration of active sites – amounted to 0.0297 ± 0.0033 s⁻¹; the kcat/Km (in general, the second-order rate constant that governs catalysis at low substrate concentration) came out at 2.83 M⁻¹ s⁻¹. Also, in “purified protein”, the Km amounted to 3.3 ± 0.2 µM.

B2: LadA (alkane monooxygenase) (Geobacillus thermodenitrificans NG80-2; F10L) (protein)
chain: MTKKIHINALEMNCVGHIAHGLWRHPENQRHRYTDLNYWTELAQLLEKGKFDALFLADVVGIYDVYRQSRDTAVREAVQIPVNDPLMLISAMAYVTKHLAFAVTFSTTYEHPYGHARRMSTLDHLTKGRIAWNVVTSHLPSADKNFGIKKILEHDERYDLADEYLEVCYKLWEGSWEDNAVIRDIENNIYTDPSKVHEINHSGKYFEVPGPHLCEPSPQRTPVIYQAGMSERGREFAAKHAECVFLGGKDVETLKFFVDDIRKRAKKYGRNPDHIKMFAGICVIVGKTHDEAMEKLNSFQKYWSLEGHLAHYGGGTGYDLSKYSSNDYIGSISVGEIINNMSKLDGKWFKLSVGTPKKVADEMQYLVEEAGIDGFNLVQYVSPGTFVDFIELVVPELQKRGLYRVDYEEGTYREKLFGKGNYRLPDDHIAARYRNISSNV
Consider B2, for which, in series [1], the Michaelis-Menten constant (Km) worked out at 6980 ± 500 µM, the kcat was determined as 0.036 ± 0.005 s⁻¹ and the kcat/Km stood at 5.17 M⁻¹ s⁻¹. Also, in “purified protein”, the Km was determined as 3.1 ± 0.3 µM.

B3: LadA (alkane monooxygenase) (Geobacillus thermodenitrificans NG80-2; F10L/N133R) (protein)
chain: MTKKIHINALEMNCVGHIAHGLWRHPENQRHRYTDLNYWTELAQLLEKGKFDALFLADVVGIYDVYRQSRDTAVREAVQIPVNDPLMLISAMAYVTKHLAFAVTFSTTYEHPYGHARRMSTLDHLTKGRIAWRVVTSHLPSADKNFGIKKILEHDERYDLADEYLEVCYKLWEGSWEDNAVIRDIENNIYTDPSKVHEINHSGKYFEVPGPHLCEPSPQRTPVIYQAGMSERGREFAAKHAECVFLGGKDVETLKFFVDDIRKRAKKYGRNPDHIKMFAGICVIVGKTHDEAMEKLNSFQKYWSLEGHLAHYGGGTGYDLSKYSSNDYIGSISVGEIINNMSKLDGKWFKLSVGTPKKVADEMQYLVEEAGIDGFNLVQYVSPGTFVDFIELVVPELQKRGLYRVDYEEGTYREKLFGKGNYRLPDDHIAARYRNISSNV
For B3, in series [1], the Km is 2040 ± 200 µM, the catalytic constant (kcat) came to 0.0737 ± 0.01 s⁻¹ and the kcat/Km is 36.2 M⁻¹ s⁻¹. In addition, the Km in “purified protein” amounted to 3.9 ± 0.3 µM.

The values are drawn from PMC11310373, “Development of a microbial dewaxing agent using three spore forming bacteria” (Bioresources and Bioprocessing, 2024).
